This note sets out measurements from the nanobody polyreactivity screen of Harvey et al. (2022).

The data set can be described thus: yeast display, Sf9 membrane polyspecificity reagent, FACS + sequencing; frameworks hold sequencing errors. In outline: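 Sorting gates, low and high (top ~1%), were placed on anti-HA fluorescence to track expression and on streptavidin fluorescence to track reagent binding. A clone's polyreactivity label is taken from the gate it came out of. The reagent was 10% biotinylated, detergent-solubilized Sf9 membrane, applied for 1 hour at 4 °C to galactose-induced yeast display cells.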
“QVQLVESGGGLVQAGGSLRLSCAASGSTFPYYAMGWYRQAPGKERELVAAISSSGGSTYYADSVKGRFTISRDNAKNTVYLQMNSLKPEDTAVYYCATSSRYVDGYEMDYWGQGTQVSVSS”: the “polyreactivity (PSR sort gate)” value is on record as “high polyreactivity”.

“QVQLVESGGGLVQAGGSLRLSCAASGSTFPYYTMGWYRQAPGKERELVAAIRYSGSSTYYADSVKGRFTISLDNAKNSVYLQMNSLKPEDTAVYSCAKTLWRRRGDRRYRVIEMDHWGQGTQVTVSS”: the “polyreactivity (PSR sort gate)” value was “low polyreactivity”.

Consider “QVQLVESGGGLVQAGGSLRLSCAASGSTFPYYTMGWYRQAPGKERELVAAITWRGGRTYYADSVKGRFTISRDNAKYTVYLQMNSLKPEDTAVYYCNAYGIDTGDYWGQGTQVTVSS”, for which the “polyreactivity (PSR sort gate)” value was “high polyreactivity”.

Regarding “QVQLVESGGGLVQAGGSLRLSCAASGSTFQDYAMGWYRQAPGKERELVAAISKRGGRTYYADSVKGRFTISRDNAKNTVYLQMNSLKPEETAVYYCNTYPVPGGVTYSYTGFDYWGQGTQVTVSS”, the “polyreactivity (PSR sort gate)” value is on record as “high polyreactivity”.

As to “QVQLVESGGGLVQAGGSLRLSCAASGSTFQFNAMGWYRQAPGKEREFVAAITSSAGRTYYADSVKGRFTISRDNAKNTVYLQMNSLKPEDTAVYYCAATFYRRYVDLGYWGQGTQVTVSS”, the “polyreactivity (PSR sort gate)” value is recorded as “high polyreactivity”.

For “QVQLVESGGGLVQAGGSLRLSCAASGSTFQGNAMGWYRQAPGKERELVAAISSDGSTDYADSVKGRFTISRDNAKNTVYLQMNSLKPEDTAVYYCNRVSPGPDADLEFDYWGQGTQVTVSS”, the “polyreactivity (PSR sort gate)” value was “low polyreactivity”.

In the case of “QVQLVESGGGLVQAGGSLRLSCAASGSTFQIYAMGWYRQPPGKDRELVAANTSSSSTNYADSVKGRFTISRENAKNTVYLQMNSLKPEDTAVYYCAAAVSWRSNWYDYWGQGTQVTVSS”, the “polyreactivity (PSR sort gate)” value was “low polyreactivity”.

Regarding “QVQLVESGGGLVQAGGSLRLSCAASGSTFQPNAMGWYRQAPGKERELVAAITGGDNTNYADSVKGRFTISRDNAKNTVYLQMNSLKPEDTAVYYCAAGGLGSRWYVGYDYWGQGTQVTVSS”, the “polyreactivity (PSR sort gate)” value is given as “low polyreactivity”.

For “QVQLVESGGGLVQAGGSLRLSCAASGSTFQPYAMGWYRQAPGKEREFVATISGSAGSTYYADSVKGRFKISRDNAKNTVYLQMNSLKPEDTAVYYCNADSGWFGYDYWGQGTQVTVSS”, the “polyreactivity (PSR sort gate)” value is given as “low polyreactivity”.

Consider “QVQLVESGGGLVQAGGSLRLSCAASGSTFQQYAMGWYRQAPGKERELVAAISWRGGSTYYADSVKGRFTISRDNAKNTVYFQMNSLKPEDTAFYYCAARYQPGGFSRYDYYYWGQGTQVTVSS”, for which the “polyreactivity (PSR sort gate)” value was “high polyreactivity”.

Regarding “QVQLVESGGGLVQAGGSLRLSCAASGSTFQRYAMGWYRQAPGKERELVAAISDGGSTKYADYVKGRFTISRDNAKNTVYLQMNRLKPEDTAVYYCAANYLSRYDYWGQGTQVTVSS”, the “polyreactivity (PSR sort gate)” value was “low polyreactivity”.

For the sequence “QVQLVESGGGLVQAGGSLRLSCAASGSTFQRYAMGWYRQAPGKERELVAAISSRGGSTYYADSVKGRFTISRDNAKNTVYLQMNSLKPEDTAVYYCAALGHLRYDYWGQGTQVTVSS”, the “polyreactivity (PSR sort gate)” value was “high polyreactivity”.

Regarding “QVQLVESGGGLVQAGGSLRLSCAASGSTFQSYAMGWSRPAPGKERELVAAISFSGGSTYYADSVKGRFTISRDHAKNTVYLQMNSLKPEDTAVYYCAADVAYVEYAYWGQGTQVTVSS”, the “polyreactivity (PSR sort gate)” value is “low polyreactivity”.

On to “QVQLVESGGGLVQAGGSLRLSCAASGSTFQTYAMGWYRQAPGKERELVASISYGVTTYYADSVKGRFTISRDNAKNTVYLQMNSLKPEDTAVYYCAREGYKWVYLSYGYWGQGTQVTVSS”, for which the “polyreactivity (PSR sort gate)” value is “low polyreactivity”.

Turning to “QVQLVESGGGLVQAGGSLRLSCAASGSTFQTYVMGWYRQAPGKERELVAAISSGGSTNYADSVKGRFTISRDNAKNTVYLQMISLKPEDTAVYYCAKRWPYFRRGKDGYWGQGTQVTVSS”, the “polyreactivity (PSR sort gate)” value is reported as “low polyreactivity”.

Regarding “QVQLVESGGGLVQAGGSLRLSCAASGSTFQVNAMGWYRQAPGKERELVASISGGSSTNYADSVKGRFTISRDNAKNTVYFQMNSLKPEDTAVYYCAADYLSGLRVAYDYWGQGTQVTVSS”, the “polyreactivity (PSR sort gate)” value is recorded as “low polyreactivity”.

For “QVQLVESGGGLVQAGGSLRLSCAASGSTFQVNAMGWYRQAPGQDRELVAAITYRTGRTYYADSVKGRCTISRDNAKNTGYLQMNSLKPEDTAVYYCAATAHSYYGVGMGYWGQGTQVTVSS”, the “polyreactivity (PSR sort gate)” value is “high polyreactivity”.

“QVQLVESGGGLVQAGGSLRLSCAASGSTFQVYAMGWYRQAPGKERELVAAIRYRDGNTYYADSVKGRFTISRDNAKNTVYLQMNSLKPEETAVYYCNARLYMPSGYRRSNGYESDYWGQGTQVTVSS”: the “polyreactivity (PSR sort gate)” value was “high polyreactivity”.

For the sequence “QVQLVESGGGLVQAGGSLRLSCAASGSTFQYYPMGWYRQAPGKERELVAAISYRGSTYYADSVKGRFTISRDNAKNTVYLQMNRLKPEDTSVYYCAKGGTTWYWSGYRSIYFRYDYWGQGTQVTVSS”, the “polyreactivity (PSR sort gate)” value is “high polyreactivity”.

With “QVQLVESGGGLVQAGGSLRLSCAASGSTFRANAMGWYRQAPGKERELVAAIRGTGSTYYADSVKGRFTISRDNAKNTVYLQMNSLKPEDTAVYYCAARPGYLYSKYNYWGQGTQVTVSS”, the “polyreactivity (PSR sort gate)” value is recorded as “high polyreactivity”.

For “QVQLVESGGGLVQAGGSLRLSCAASGSTFRAYAMGWYRQAPGKERELVAAISSGGSTYYADSVKGRFTISRDNAKITVYLQMNCLKPEDTAVYHCAKGWYYVSPYGYRKGVYYWGQGTKVTVSS”, the “polyreactivity (PSR sort gate)” value is reported as “high polyreactivity”.

In the case of “QVQLVESGGGLVQAGGSLRLSCAASGSTFRDNAMGWYRQAPGKERELVAAISRRGGNTYYADSVKGRFTISRDNAKNTVYLQMNSLKPEDTAVYYCAAEVKTSYSYTHDGYWGQGTQVTVSS”, the “polyreactivity (PSR sort gate)” value is reported as “high polyreactivity”.

In the case of “QVQLVESGGGLVQAGGSLRLSCAASGSTFRDNAMGWYRQAPGKERELVAAITVIDGTTYYADSVKGRFTISRDYAKNTVYLQMNSLKPEDTAVYYCADDTIWYEYYYWGQGTQVTVSS”, the “polyreactivity (PSR sort gate)” value was “low polyreactivity”.

With “QVQLVESGGGLVQAGGSLRLSCAASGSTFRENDMGWYRQAPGKERELVAALTFSGGSTYADSVKGRFTISRDNAKNTVYLQMNSLKPEDTAVYYCSADTLPAEFDYDYWGQGTQVTVSS”, the “polyreactivity (PSR sort gate)” value was “low polyreactivity”.

Regarding “QVQLVESGGGLVQAGGSLRLSCAASGSTFRFNAMGWYRQAPGKERELVAAITSTGSTYYADSVKGRFTISRDNAKNTVYLQMNSLKPEDTADYYCAATYPRYRATPRYYSWGQGTQVTVSS”, the “polyreactivity (PSR sort gate)” value was “high polyreactivity”.

As to “QVQLVESGGGLVQAGGSLRLSCAASGSTFRFNAMGWYRQAPGKERELVATISYSSDSTYYAYSVKVRFTISRDNAKNTVYLQMNSLKPEDTAVYYCAADSGYARFDYWGQGTQVTVSS”, the “polyreactivity (PSR sort gate)” value is “high polyreactivity”.

As for “QVQLVESGGGLVQAGGSLRLSCAASGSTFRFYAMGSYRQAPGKERELVASISRSGGSTYYADSVKGRFTISRDNAKNTVYLQMNSLKPEDTAVYYCAARILYHMDWGQGTQVTVSS”, the “polyreactivity (PSR sort gate)” value is on record as “high polyreactivity”.

Turning to “QVQLVESGGGLVQAGGSLRLSCAASGSTFRFYAMGWYRQAPGKERELVAAINGSGGSTYYADSVKGRFTISRDIAKNSVYLQMNSLKPEDTAVYYCAVLYRYGYDYWGQGTQVTVSS”, the “polyreactivity (PSR sort gate)” value is on record as “low polyreactivity”.

As to “QVQLVESGGGLVQAGGSLRLSCAASGSTFRFYAMGWYRQAPGKERELVAAISKSGGITYYADSVKGRFTISRDNAKNTVYLQMNSLKPEDTAVYSCATVGLLSNFYARFNYWGQGTQVTVSS”, the “polyreactivity (PSR sort gate)” value is “high polyreactivity”.

Take “QVQLVESGGGLVQAGGSLRLSCAASGSTFRFYAMGWYRQAPGKERELVAAISSRAGSTYYADSVKGRFTISRDNAKNTVYLQMNSLKPEDTAVYYCNARTYSYRGYNYWGQGTQVTVSS”: the “polyreactivity (PSR sort gate)” value is “high polyreactivity”.

On to “QVQLVESGGGLVQAGGSLRLSCAASGSTFRGNAMGWYRQAPGKERELVAAISESGTDTYYADSVKGRFTISRDNAKKTVYLLMNSLKPEDTAVYYCAKDYSGTYYAQYNYWGQGTQVTVSS”, for which the “polyreactivity (PSR sort gate)” value is “low polyreactivity”.

On to “QVQLVESGGGLVQAGGSLRLSCAASGSTFRGYAKGWNRQAPGKERELVAAISSRGARTHYADSVKGRFTISRDNAKNTVYLQMNSLKPEDTAVYYCAVGSPYYDGMDYWGQGTQVTVSS”, for which the “polyreactivity (PSR sort gate)” value is listed as “low polyreactivity”.

“QVQLVESGGGLVQAGGSLRLSCAASGSTFRGYAMGRYRQAPGKERELVAAITRNGGSTYYADSVKGRFTISRDNAKNTVYLQMNSLKPEDTAVFYCAAAKRRTVGVKYTFDYWGQGTQVTVSS”: the “polyreactivity (PSR sort gate)” value was “high polyreactivity”.

With “QVQLVESGGGLVQAGGSLRLSCAASGSTFRGYAMGWNRPAPGKETELVAGITKRGGSTYYADSVKGRFTISRDNAKNTVYLQMNSLKPEDTAVYYCAAGKHRQAYEHDYWGQGTQVTVSS”, the “polyreactivity (PSR sort gate)” value was “high polyreactivity”.

As for “QVQLVESGGGLVQAGGSLRLSCAASGSTFRGYAMGWYRHAPGKERELVAAITYISDSTYYADSVKGRFTISRDNAKNTVYLQMNSLKPEDTAVYYCIAYYDGDWRYTSQETGDHWGQGTQVTVSS”, the “polyreactivity (PSR sort gate)” value is on record as “low polyreactivity”.

For “QVQLVESGGGLVQAGGSLRLSCAASGSTFRGYAMGWYRQAPGKDRELVATISGSDGTTYYADSVQGRFTISRDNAKKTVYLQMNSLKPEDTAVYFCAAGETFEMYYWGQGTQVTVSS”, the “polyreactivity (PSR sort gate)” value is “low polyreactivity”.

“QVQLVESGGGLVQAGGSLRLSCAASGSTFRGYAMGWYRQAPGKEREFVAAISRRGGTTYYADSVKGRFTISRDNAKNTVYLQMNSLKPEDTAVYYCNKVYYQHYLAFDYWGQGTQVTVSS”: the “polyreactivity (PSR sort gate)” value was “high polyreactivity”.

“QVQLVESGGGLVQAGGSLRLSCAASGSTFRGYAMGWYRQAPGKEREIVAAISRRGGTTYYADSVKGRFTISRDNAKNTVYLQMNSLKPEDTAVYYCNKVYYQHYLAFDYWGQGTQVTVSS”: the “polyreactivity (PSR sort gate)” value was “high polyreactivity”.

Take “QVQLVESGGGLVQAGGSLRLSCAASGSTFRINAMGWYRQAPGKERELVADINSGGNTTYADSVKGRFTISRDNAKNTVYLQMNSLKPEDTAVYYCNAPYSFFWQQMNYWGQGTQVTVSS”: the “polyreactivity (PSR sort gate)” value is recorded as “low polyreactivity”.

Regarding “QVQLVESGGGLVQAGGSLRLSCAASGSTFRIYAMGWYRQAPGKERELVAAIRRRGASTYYADSVKGRFTISRDNAKNTVYLQMISLKPEDTAVYYCAASYFWDRVPGRGIHDYWGQGTQVTVSS”, the “polyreactivity (PSR sort gate)” value is “high polyreactivity”.

Consider “QVQLVESGGGLVQAGGSLRLSCAASGSTFRIYAMGWYRQAPGKERELVATITSGSSTYADSVKGRFTISRDNAKNTVYLQMNSLKPEDTAVYYCAARRKGGHISYGYDYWGQGTQVTVSS”, for which the “polyreactivity (PSR sort gate)” value is “high polyreactivity”.
